Patent publication US20110195021A1 (IMMUNOGEN, published 2011)
Residue numbers refer to the chain shown, from its start. Read-outs that look alike come from different tables or passages of the source.

T1: human CD20 (human, UniProt P11836 1-297)
T1 construct: whole, on cells; also called wild type CD20; MS4A1
T1 sequence (looked up): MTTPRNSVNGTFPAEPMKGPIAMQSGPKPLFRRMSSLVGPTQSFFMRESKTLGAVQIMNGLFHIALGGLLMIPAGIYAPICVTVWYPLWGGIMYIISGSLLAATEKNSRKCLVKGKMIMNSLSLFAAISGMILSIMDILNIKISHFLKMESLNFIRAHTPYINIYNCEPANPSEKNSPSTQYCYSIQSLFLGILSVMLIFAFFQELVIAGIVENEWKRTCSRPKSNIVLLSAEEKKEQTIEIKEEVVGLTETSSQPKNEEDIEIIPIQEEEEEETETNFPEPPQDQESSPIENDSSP

T2: CD20 N163D (human, UniProt P11836 1-297)
T2 construct: whole, on cells; Stably expressed on 300-19 cells
T2 sequence (looked up): T1 sequence (looked up) with N163D

T3: CD20-A170S P172S variant (human, UniProt P11836 1-297)
T3 construct: Stably expressed on 300-19 cells; also called CD20-AP; CD20AP
T3 chain: T1 sequence (looked up) with A170S, P172S

T4: CD20 N163D N166D (human, UniProt P11836 1-297)
T4 construct: whole, on cells; Stably expressed on 300-19 cells; also called CD20-NNDD
T4 sequence (looked up): T1 sequence (looked up) with N163D, N166D

B1: muCD20-6 (antibody, mouse IgG1, kappa, V domains shown)
VH: QIQLVQSGPELKKPGETVKISCKASGYKFTNVGMNWVKQVPGKGLKWMGWINTYTGEPAYADDFKGRFVFSLETSASAAFLQINNLKNEDTATYFCARGAYYRYDLGMDYWGQGTSVTVSS
VL: DIVLTQSPASLAVSLGQRAIISCRASESVDNFGNSFMHWYQQKPGQPPTLLIYRASNLESGIPARFSGSGSRTDFTLTVNPVEADDIATYYCQQSYEDPFTFGAGTKLELKR
notes: Murine monoclonal antibody purified from hybridoma (ATCC PTA-10486); also called murine CD20-6
B2: chCD20-7 (antibody, V domains shown)
VH: B1 VH with I2L, K28S, V32Y, V40A, A59S, V69A, A78T, F80Y, N84S
VL: B1 VL with I20T, E27G, N31S, T49K, I62V, S69G, V79I, Y91F, K111M
notes: Chimeric antibody: CD20-7 variable regions cloned into pchCD20-7HCN and pchCD20-7LCZ and expressed in HEK-293T cells; also called chimeric CD20-7
B3: muCD20-7 (antibody, mouse IgG1, kappa, V domains shown)
VH: B1 VH with I2L, K28S, V32Y, V40A, A59S, V69A, A78T, F80Y, N84S
VL: B1 VL with I20T, E27G, N31S, T49K, I62V, S69G, V79I, Y91F, K111M
notes: Murine monoclonal antibody purified from hybridoma (ATCC PTA-10487); also called murine CD20-7
B4: rituximab (antibody, V domains shown)
VH: QVQLQQPGAELVKPGASVKMSCKASGYTFTSYNMHWVKQTPGRGLEWIGAIYPGNGDTSYNQKFKGKATLTADKSSSTAYMQLSSLTSEDSAVYYCARSTYYGGDWYFNVWGAGTTVTVSA
VL: QIVLSQSPAILSASPGEKVTMTCRASSSVSYIHWFQQKPGSSPKPWIYATSNLASGVPVRFSGSGSGTSYSLTISRVEAEDAATYYCQQWTSNPPTFGGGTKLEIK

Key:
human CD20 (human) [1] = molecular target: human CD20 (human) (UniProt P11836); assay: flow cytometry on SU-DHL-4 cells
human CD20 (human) [2] = molecular target: human CD20 (human) (UniProt P11836); assay: cell-based or functional assay
human CD20 [3] = molecular target: T1, human CD20; assay: flow cytometry on 300-19 cells transfected with wild type human CD20
CD20 N163D = molecular target: T2, CD20 N163D; assay: flow cytometry on 300-19 cells transfected with human CD20 N163D
human CD20 [4] = molecular target: T1, human CD20; assay: flow cytometry on 300-19 cells transfected with wild type human CD20; remark: listed apart in the source
CD20-A170S P172S variant = molecular target: T3, CD20-A170S P172S variant; assay: flow cytometry on 300-19 cells transfected with human CD20 A170S P172S
human CD20 [5] = molecular target: T1, human CD20; assay: flow cytometry on BJAB cells, apparent dissociation constant from the MFI dose-response curve; muCD20-6 on BJAB cells
Description: (§1) Binding specificity was tested by flow cytometry using purified antibodies. […] Then, the cells were pelleted, washed, and incubated for 1 h with 100 μL of FITC-conjugated goat anti-mouse IgG-antibody (such as is obtainable from, for example Jackson Laboratory, 6 μg/mL in FACS buffer). The cells were pelleted again, washed with FACS buffer and resuspended in 200 μL of PBS containing 1% formaldehyde. Samples were acquired using a FACSCalibur flow cytometer with the HTS multiwell sampler or a FACS array flow cytometer and analyzed using CellQuest Pro (all from BD Biosciences, San Diego, US).
(§2) Data analysis was performed using CellQuest Pro (BD Biosciences, San Diego, US) and for each sample the mean fluorescence intensity for FL1 (MFI) was exported and plotted against the antibody concentration in a semi-log plot.

human CD20 [6] = molecular target: T1, human CD20; assay: flow cytometry on BJAB cells, apparent Kd
Description: as §1, §2
The value for the apparent dissociation constant (Kd) of each antibody was calculated using GraphPad Prism v4 (GraphPad software, San Diego, Calif.).

human CD20 [7] = molecular target: T1, human CD20; assay: flow cytometry on BJAB cells, apparent dissociation constant from the MFI dose-response curve; muCD20-7 on BJAB cells
Description: as §1, §2

CD20 N163D N166D = molecular target: T4, CD20 N163D N166D; assay: flow cytometry on 300-19 cells transfected with human CD20 N163D N166D
human CD20 [8] = molecular target: T1, human CD20; assay: flow cytometry on 300-19 cells transfected with wild type human CD20; remark: listed apart in the source

| Molecule | binding result (CD20 N163D) | EC50 (read off the curve) (human CD20 [4]) [nM] | binding result (CD20-A170S P172S variant) | Kd (human CD20 [6]) [nM] | also measured |
| --- | --- | --- | --- | --- | --- |
| rituximab-SMCC-[^3H]DM1 (antibody) |  |  |  |  | EC50 (read off the curve) (human CD20 (human) [1]): 1 nM; IC50, cell-based viability assay, CD20-positive SU-DHL-4 cells (human CD20 (human) [2]): 0.24 nM |
| B1 (antibody) |  |  |  |  | EC50 (read off the curve) (human CD20 [3]): 0.4 nM |
| B1 | no binding (tested: 10^-7.5 M (about 3x10^-8 M)) | ~0.8 | binds |  | Kd (human CD20 [5]): 0.4 nM |
| B2 |  |  |  | 0.5 |  |
| B3 | no binding (tested: 10^-7.5 M (about 3x10^-8 M)) | ~0.5 | binds | 0.4 | Kd (human CD20 [7]): 0.3 nM; binding result (CD20 N163D N166D): no binding (tested: 10^-7.5 M (about 3x10^-8 M)) |
| B4 |  |  |  |  | EC50 (read off the curve) (human CD20 [8]): ~0.5 nM |
